Source: patent US6548266B1, “Assay for detecting the enzymatic activity of a phosphorylation enzyme using enhanced signal generation” (Kinetek Pharmaceuticals, Inc., priority 1999, dated 2003)
Blank lines part the entries; values can stand above or below the substance they belong to.

Key:
[1] = biological target: T1, CDK1 (Homo sapiens, UniProt P06493); assay: Phosphorylation of peptide substrate in solution, spotted on phosphocellulose plate, scintillation counting; type: biochemical
T1 construct: made in house; host or cells: bacterial culture
Method: (§1) The phosphorylation assay mixture typically comprised:
(§2) The phosphorylation of the polymer-conjugated substrate was carried out in a solution containing 5 μL (˜5 μg peptide) of the conjugated substrate, 10 μL of the indicated enzyme, 10 μL of ADB, and 5 μL of γ-^32P-ATP. After incubation at room temperature for 15 minutes, the reaction was stopped by spotting 10 μL of the sample solution on a phosphocellulose plate and washing with water, 1% phosphoric acid solution, water and ethanol. The radioactivity in each well was measured using a Trilux Microbeta 1450 liquid scintillation counter (Wallac).

[2] = tested on: PAK; assay: as above; type: biochemical
Method: as §1, §2

[3] = biological target: T2, PIM (Xenopus laevis, UniProt Q91822); assay: as above; type: biochemical
T2 construct: made in house; host or cells: bacterial culture
Method: as §1, §2

[4] = biological target: T3, S6K (Homo sapiens, UniProt P23443); assay: as above; type: biochemical; settings: for Ratio: after/before conjugation; for Radioactivity (cpm) Before Conjugation: free peptide before conjugation to polymer; for Radioactivity (cpm) Before Conjugation / Radioactivity (cpm) After conjugation: 15 min room temperature; for Radioactivity (cpm) After conjugation: peptide after conjugation to polymer
T3 construct: made in house
Method: as §1, §2

[5] = biological target: T4, PKA (Bos taurus, UniProt P00517); assay: as above; type: biochemical, bovine
T4 construct: PKA was isloated from bovine heart; from tissue; host or cells: bovine heart
Method: CDK1, PAK and PIM were grown in bacterial culture at Kinetek Pharmaceuticals. PIM was isolated as described by Palaty et al. (1997) J Biol Chem 272:10514-10521. PKA was isloated from bovine heart. PKB was expressed in insect cells. S6K was isolated according to Grove et al. (1991) Mol Cell Bio 11:5541-5550. Kinase stock solutions were prepared at concentrations of 1-10 mg/mL in 150 mM Tris-Cl (pH 7.5) containing 5 mg/mL BSA and 100 mM MgCl2.
as §1, §2

[6] = biological target: T2, PIM; assay: Phosphorylation of substrate immobilized on covalent, amine-binding plates; type: biochemical; settings: amine-binding plate
Method: (§3) The polylysine-conjugated peptide substrate was diluted with a PBS buffer (pH 7.4) to a concentration of 0.1 mg/mL. Then 100 μL of the diluted solution was placed into each well of the covalent, amine-binding plate. The plate was incubated at room temperature for one hour and then washed with the PBS buffer three times and distilled water once. The substrate-immobilized plate was then phosphorylated as using standard assay conditions: 10 μL of the indicated enzyme, 15 μL of ADB and 5 μL of γ-^32P-ATP at room temperature for 15 minutes. After phosphorylation, the plate was rinsed sequentially with water, 1% phosphoric acid solution, water, and ethanol. The radioactivity in each well was determined using a Trilux Microbeta liquid scintillation counter. Two polylysine-conjugated substrates were immobilized on the covalent, amine-binding plates and phosphorylation of these immobilized polylysine-conjugated substrates was carried out. Both systems yielded reasonably high signals and the background signals on these plates were less than 500 cpm.
(§4) Effect of pH. In the case of immobilization to covalent, amine-binding plates, the pH effect was investigated. The immobilization of a conjugated-substrate to an covalent, amine-binding plate was achieved by incubating 100 μL of PBS buffer solution containing 10 μg of the conjugated-substrate at room temperature for an hour. […]

[7] = biological target: T5, ERK1 (Homo sapiens, UniProt P27361); assay: Phosphorylation of peptide substrate in solution, spotted on phosphocellulose plate, scintillation counting; type: biochemical; settings: for Radioactivity (cpm), polymer effect on the phosphorylation of SEK1-CT by ERK1: SEK1-CT conjugated to the polymer named in the row; for Enhancing effect of polymeric carrier on the substrate activity: SEK1-CT conjugated to the polymer, result in words
Method: as §1, §2

[8] = biological target: T5, ERK1; assay: Phosphorylation of SEK1-CT immobilized on covalent, amine-binding strips; type: biochemical; settings: conjugation simultaneous with phosphorylation, 15 min
Method: Immobilization of SEK1-CT on covalent, amine-binding strips was also accomplished in a stepwise procedure: the polymer was immobilized on a covalent, amine-binding plate first (1 hour), then treated with SMCC (1 hour). Conjugation of SEK1-CT to the immobilized polylysine was achieved simultaneously with the phosphorylation by ERK1. The polymers used were polylysine of MW ˜35,000 and poly(lys, ala) 1:1 copolymer of MW ˜35,000. The assay mixture comprising 5 μL of SEK1-CT, 5 μL of ADB, 10 μL of ERK1 and 10 μL of γ-^32P-ATP was incubated at room temperature for 15 minutes. An aliquot (10 μL) was then spotted on a phosphocellulose plate to stop the reaction. The radioactivity on the plate was determined using a Trilux Microbeta liquid scintillation counter. The radioactivity remaining on the surface of the wells after the plate was washed with water and 1% phosphoric acid was determined using a Beckmann liquid scintillation counter. […] Also, the immobilization of polymer-conjugated SEK1-CT on the surfaces enhanced its phosphorylation. The radioactivity observed for the unconjugated SEK1-CT may result from non-specific binding of the amine groups on SEK1-CT to the plate. This non-specific binding could be eliminated by using polylysine as the blocking agent.

[9] = biological target: T5, ERK1; assay: One-plate assay (non-covalent, medium binding plate); type: biochemical
Method: (§5) The one-plate assay was compared with the two-plate assay under the normal conditions employed by the high throughput screening robotic system: a mixture of 5 μL substrate (5 μg), 10 µL enzyme, 10 μL ADB and 5 μL γ-^32P ATP was incubated at room temperature for 20 minutes. In the one-plate assay, a non-covalent, medium binding plate was used.

[10] = biological target: T5, ERK1; assay: Phosphorylation of substrate immobilized on covalent, amine-binding plates; type: biochemical; settings: amine-binding plate
Method: as §3, §4

[11] = biological target: T5, ERK1; assay: Two-plate assay; type: biochemical
Method: as §5

[12] = biological target: T6, PKB (Homo sapiens, UniProt P31749); assay: Phosphorylation of peptide substrate in solution, spotted on phosphocellulose plate, scintillation counting; type: biochemical
T6 construct: made in house; host or cells: insect cells
Method: as §1, §2

[13] = biological target: T6, PKB; assay: One-plate assay (non-covalent, medium binding plate); type: biochemical
Method: as §5

[14] = biological target: T6, PKB; assay: Two-plate assay; type: biochemical
Method: as §5

[15] = free peptide before conjugation to polymer
[16] = peptide after conjugation to polymer
[17] = conjugated substrate, 20 minutes

T6 sequence (P31749 whole entry, species assumed): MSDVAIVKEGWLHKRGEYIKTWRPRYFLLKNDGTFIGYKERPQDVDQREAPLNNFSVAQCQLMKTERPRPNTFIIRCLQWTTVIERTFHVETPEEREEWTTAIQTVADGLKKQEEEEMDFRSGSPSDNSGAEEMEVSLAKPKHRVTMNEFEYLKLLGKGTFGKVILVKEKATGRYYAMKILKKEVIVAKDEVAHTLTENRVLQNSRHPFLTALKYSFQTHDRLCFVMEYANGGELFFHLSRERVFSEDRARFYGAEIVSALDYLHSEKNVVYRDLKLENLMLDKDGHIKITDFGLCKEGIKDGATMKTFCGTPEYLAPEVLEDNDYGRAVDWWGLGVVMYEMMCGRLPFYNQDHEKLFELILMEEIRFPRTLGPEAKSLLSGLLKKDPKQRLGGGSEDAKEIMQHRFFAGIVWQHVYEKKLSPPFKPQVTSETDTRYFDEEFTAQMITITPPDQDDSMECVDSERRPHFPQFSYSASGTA
T2 sequence (Q91822 whole entry): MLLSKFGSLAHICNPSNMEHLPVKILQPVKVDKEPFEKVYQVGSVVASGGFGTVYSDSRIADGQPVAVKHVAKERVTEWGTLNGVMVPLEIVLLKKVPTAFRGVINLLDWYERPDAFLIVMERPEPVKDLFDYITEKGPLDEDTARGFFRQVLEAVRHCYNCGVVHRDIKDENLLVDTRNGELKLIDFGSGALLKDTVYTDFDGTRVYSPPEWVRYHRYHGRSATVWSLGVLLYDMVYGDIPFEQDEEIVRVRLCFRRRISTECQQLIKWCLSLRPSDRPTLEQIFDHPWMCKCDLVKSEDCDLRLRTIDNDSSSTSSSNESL
T1 sequence (P06493 whole entry, species assumed): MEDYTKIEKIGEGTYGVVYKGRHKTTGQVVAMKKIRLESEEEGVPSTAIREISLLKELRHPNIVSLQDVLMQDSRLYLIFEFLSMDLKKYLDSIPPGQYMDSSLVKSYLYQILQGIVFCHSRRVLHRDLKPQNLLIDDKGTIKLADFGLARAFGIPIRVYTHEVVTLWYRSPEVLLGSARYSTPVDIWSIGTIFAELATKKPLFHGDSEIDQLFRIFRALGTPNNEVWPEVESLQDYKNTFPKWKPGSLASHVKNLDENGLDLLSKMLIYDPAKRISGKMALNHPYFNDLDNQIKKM
T3 sequence (P23443 whole entry): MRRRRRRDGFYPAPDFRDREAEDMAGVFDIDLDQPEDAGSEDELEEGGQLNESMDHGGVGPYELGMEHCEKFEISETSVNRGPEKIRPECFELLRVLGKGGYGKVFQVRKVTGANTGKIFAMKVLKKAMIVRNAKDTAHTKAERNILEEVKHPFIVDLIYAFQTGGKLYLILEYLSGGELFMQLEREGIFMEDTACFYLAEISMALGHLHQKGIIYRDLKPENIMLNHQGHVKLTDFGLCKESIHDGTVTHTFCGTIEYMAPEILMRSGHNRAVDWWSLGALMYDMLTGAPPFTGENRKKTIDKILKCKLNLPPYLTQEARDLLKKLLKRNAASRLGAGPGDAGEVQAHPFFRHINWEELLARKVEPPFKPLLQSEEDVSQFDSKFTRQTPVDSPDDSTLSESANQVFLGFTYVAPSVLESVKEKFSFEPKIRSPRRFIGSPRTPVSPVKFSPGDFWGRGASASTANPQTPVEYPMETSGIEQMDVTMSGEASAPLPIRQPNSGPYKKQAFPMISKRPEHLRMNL
T5 sequence (P27361 whole entry, species assumed): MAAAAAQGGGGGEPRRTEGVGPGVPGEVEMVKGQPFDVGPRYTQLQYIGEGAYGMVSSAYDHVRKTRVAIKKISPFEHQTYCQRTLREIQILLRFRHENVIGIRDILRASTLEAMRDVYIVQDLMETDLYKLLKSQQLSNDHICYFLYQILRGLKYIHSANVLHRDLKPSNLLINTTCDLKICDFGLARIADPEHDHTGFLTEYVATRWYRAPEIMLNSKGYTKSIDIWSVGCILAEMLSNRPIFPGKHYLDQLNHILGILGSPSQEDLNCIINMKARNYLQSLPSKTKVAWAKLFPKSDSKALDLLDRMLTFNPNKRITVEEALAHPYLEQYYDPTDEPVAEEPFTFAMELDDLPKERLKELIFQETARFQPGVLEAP

Ratio ([1]; after/before conjugation): 3.76
Radioactivity (cpm) Before Conjugation [1, 15]: 12500 cpm
Radioactivity (cpm) After conjugation [1, 16]: 47000 cpm
Ratio ([3]; after/before conjugation): 2.31
Radioactivity (cpm) Before Conjugation [3, 15]: 18000 cpm
Radioactivity (cpm) After conjugation [3, 16]: 41500 cpm
Ratio [4]: 6.25
Radioactivity (cpm) Before Conjugation [4]: 10000 cpm
Radioactivity (cpm) After conjugation [4]: 62500 cpm
Ratio ([5]; after/before conjugation): 1.10
Radioactivity (cpm) Before Conjugation [5, 15]: 35680 cpm
Radioactivity (cpm) After conjugation [5, 16]: 39425 cpm
Radioactivity (cpm) Free substrate [6]: ≦300 cpm
Substance: CGRTGRRNSI [CAPK-sub]
Ratio ([2]; after/before conjugation): 2.14
Radioactivity (cpm) Before Conjugation [2, 15]: 31050 cpm
Radioactivity (cpm) After conjugation [2, 16]: 66510 cpm

Ratio ([7]; after/before conjugation): 48.28
Radioactivity (cpm) Before Conjugation [7, 15]: 2390 cpm
Radioactivity (cpm) After conjugation [7, 16]: 115400 cpm
Radioactivity (cpm) [8]: 7570 cpm
S/N ratio SEK1-CT [9]: 117
Radioactivity (cpm) SEK1-CT/ERK1 Conj [9, 17]: 41000 cpm
Radioactivity (cpm) Free substrate [10]: <500 cpm
S/N ratio SEK1-CT [11]: 16
Radioactivity (cpm) SEK1-CT/ERK1 Free ([11]; free substrate, 20 minutes): 2800 cpm
Substance: CKILDQMPATPSSPMYVD [SEK1-CT]

Ratio ([12]; after/before conjugation): 1.91
Radioactivity (cpm) Before Conjugation [12, 15]: 54300 cpm
Radioactivity (cpm) After conjugation [12, 16]: 103900 cpm
S/N ratio PKB-sub [13]: 81
Radioactivity (cpm) PKB-sub/PKB Conj [13, 17]: 48300 cpm
S/N ratio PKB-sub [14]: 22
Radioactivity (cpm) PKB-sub/PKB Free ([14]; free substrate, 20 minutes): 38000 cpm
Substance: CKRPRAASFAE [PKB-sub]

Ratio [4]: 2.82
Radioactivity (cpm) Before Conjugation [4]: 14000 cpm
Radioactivity (cpm) After conjugation [4]: 39450 cpm
Substance: CKRRRLASLR [S6K-sub]

Radioactivity (cpm), polymer effect on the phosphorylation of SEK1-CT by ERK1 [7]: 91431 cpm
Enhancing effect of polymeric carrier on the substrate activity [7]: certain enhancement
Substance: Polyarginine

Enhancing effect of polymeric carrier on the substrate activity [7]: marginal enhancing effect
Substance: Polyhistidine

Substance: Polylysine
Radioactivity (cpm), polymer effect on the phosphorylation of SEK1-CT by ERK1 [7]: 211234 cpm
Enhancing effect of polymeric carrier on the substrate activity [7]: highest enhancing effect
